Four molecules from article doi:10.1101/2020.05.20.106609 (bioRxiv, 2020) can be followed below.

Substitutions are numbered along the chain they refer to.

The labels stand for the following.
B1: MD47 (scFv, V domains shown)
V domain 1: QMQLVQSGGGLVQPGGSLRLSCAASGFTFSSYAMSWVRQAPGKGLEWVSAISSGGSTYYADSVKGRFTISRDNSKNTLYLQMNSLRAEDTAVYYCAKDLVTAPSYEAFDIWGQGTMITVSS
V domain 2: NFMLTQPPSVSVAPGKTARITCGGNNIGSKSVHWYQQKPGQAPVLVIYYDSDRPSGIPERFSGSNSGNTATLTISRVEAGDEADYYCQVWDSSSHHHVVFGGGTKGTVL
B2: MD17 (scFv, V domains shown)
VH: EVQLLESGGGLVQPGGSLRLSCSASGFTFSTYVMNWVRQAPGKGLEHVSGISSDGGITYYADSVKGRFTISRDNSKNTLYLQMSSLRVEDTAVYYCVKDQDSSSWYDAFDIWGQGTMVTVSS
VL: DIVMTQSPSSLSASVGDRVTITCRASQSISNYLNWYQQKLGKAPKLLTYAASRLQSGVPSRFSASGSGTEFTLTISSLQPEDFATYYCQQSYTTPLTFGGGTKLEIK
B3: MD29 (scFv, V domains shown)
VH: B2 VH with E1Q, V2M, L5V, E6Q, L45P
VL: NIRLTQSPSSLSASVGDRVTITCRATQSISSYLNWYQQKPGKAPNLLIYAASSLQSGVPSRFSGSGSGTDFTLTISSLQPEDFATYYCHQTYTSPYTFGQGTKLEIK
B4: MD62 (scFv, V domains shown)
VH: EVQLVQSGGGLIQPGGSLRLSCAASGVTVSSNYMTWVRQAPGKGLEWVSLIYSGGSTYYADSVKGRFTISRDNSKNTLYLQMNSLRAEDTAVYYCARDLQYYGMDVWGQGTMVTVSS
VL: AIRMTQSPSSVSASVGDRVTITCRASQDIGSWLGWYQQKPGKAPKLLIYAASSLAGGVPSRFSGSGSGTDFTLTISSLQPEDFATYYCQQANSFPLTFGGGTKLEIK

The test addresses SARS-CoV-2 spike protein (SARS-CoV-2 Wuhan-Hu-1 (QHD43416), UniProt P0DTC2, stabilised). As to the kind of experiment: ELISA. A general note: ELISA stands for enzyme-linked immunosorbent assay.
B1: the binding result is reported as “binds”.

Regarding B2, the binding result is given as “binds”.

With B3, the binding result was “binds”.

For B4, the binding result is “binds”.
